Experimental findings from article PMC7826273 are described below.

The target in series [1] is T1, FmhB (Staphylococcus aureus, UniProt Q2FVZ4 1-421).
T1 sequence: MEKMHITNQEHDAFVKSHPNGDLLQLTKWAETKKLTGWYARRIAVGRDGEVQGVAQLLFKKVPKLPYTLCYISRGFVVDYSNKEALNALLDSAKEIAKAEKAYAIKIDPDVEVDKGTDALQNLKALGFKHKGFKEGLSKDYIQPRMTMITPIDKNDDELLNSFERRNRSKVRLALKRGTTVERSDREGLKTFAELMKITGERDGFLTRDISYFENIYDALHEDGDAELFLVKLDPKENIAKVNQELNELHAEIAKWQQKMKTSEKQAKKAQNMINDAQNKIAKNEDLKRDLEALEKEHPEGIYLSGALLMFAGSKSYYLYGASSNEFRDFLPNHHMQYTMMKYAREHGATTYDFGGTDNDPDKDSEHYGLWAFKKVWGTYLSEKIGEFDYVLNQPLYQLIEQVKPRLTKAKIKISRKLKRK
The experiment in a line: competition.

In series [2] the target is T1, FmhB. As to the kind of experiment: competition. This is another data set of the same source.
Series [3] concerns the target EF-Tu (GTP form) (UniProt P99152 1-394). As to the kind of experiment: competition.
Series [4] addresses T1, FmhB. The experiment in a line: size-exclusion chromatography. In general terms: Size exclusion chromatography separates by hydrodynamic size, large species first.
For series [5], the target named is T1, FmhB. The experiment in a line: competition. The source holds these as a separate data set.
For series [6], the target named is T1, FmhB. As to the kind of experiment: competition. The source holds these as a separate data set.

Where a chain is given by its changes, count along the chain named. Where two headings read alike, the source gives them in different places.

Sequence of EF-Tu (GTP form) (P99152 whole entry): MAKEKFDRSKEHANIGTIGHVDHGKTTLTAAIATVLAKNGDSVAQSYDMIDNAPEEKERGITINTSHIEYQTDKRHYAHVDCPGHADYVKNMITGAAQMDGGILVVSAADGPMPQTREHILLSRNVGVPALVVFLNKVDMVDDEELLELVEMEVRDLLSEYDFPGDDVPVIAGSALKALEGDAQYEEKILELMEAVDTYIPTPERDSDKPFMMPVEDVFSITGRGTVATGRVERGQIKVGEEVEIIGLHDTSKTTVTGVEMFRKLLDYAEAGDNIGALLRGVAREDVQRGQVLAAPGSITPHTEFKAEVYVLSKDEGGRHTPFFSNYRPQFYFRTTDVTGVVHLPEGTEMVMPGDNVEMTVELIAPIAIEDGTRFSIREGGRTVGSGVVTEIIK

B1: P1_1 analogue (P1 with NP2 region 1) (structured_RNA)
RNA: GCAGAAGUAGUUCAACUUUUAGAAUACAACCUUGCCAAGGUUGGGGUGCGGGUUCGAAUCCCGUCUUCUGCUCCA
modifications: stable triazole-nonadiyne analogue (2' isomer presumed)
B1: the binding signal in series [1] is 2 ± 0.3 fold reduction in Ki vs P1 analogue.

B2: CHIM4 analogue (P1 with NP2 anticodon stem-loop) (structured_RNA)
RNA: GCAGAAGUAGUUCAGCGGUAGAAUACGUUCCUUCCCGGAACGGGGUCGCGGGUUCGAAUCCCGUCUUCUGCUCCA
modifications: 2'-triazole-nonadiyne on terminal A; penultimate C is dC
As to B2, in series [2], the inhibitory constant (Ki) (as a rule, the dissociation constant of the complex between target and ligand, obtained from inhibition or displacement) was 220 ± 40 nM.

B3: Gly-tRNAGly P1 (structured_RNA)
RNA: GCAGAAGUAGUUCAGCGGUAGAAUACAACCUUGCCAAGGUUGGGGUCGCGGGUUCGAAUCCCGUCUUCUGCUCCA
modifications: 3'-glycyl ester
As to B3, the binding signal in series [3] is 14 ± 3 % residual FmhB activity at 4 uM EF-Tu.

B4: tRNAGly P1 (GCC-1), unacylated (structured_RNA)
RNA: B3 RNA
Consider B4, for which, in series [4], the binding result is given as “no binding”.

B5: P1 stable Gly-tRNA analogue, 2' isomer (structured_RNA)
RNA: B3 RNA
modifications: 2'-(1,4-triazole-alkyne; nonadiyne) on terminal A; penultimate C is dC (pdCpA ligation)
On to B5, for which, in series [5], the affinity, expressed as Ki, was 320 ± 10 nM.

B6: CHIM2 analogue (P1 with NP2 acceptor stem) (structured_RNA)
RNA: B3 RNA with A3G, A5G, U69C
modifications: 2'-triazole-nonadiyne on terminal A; penultimate C is dC
In series [2], B6 returned a Ki of 1000 ± 160 nM.

B7: NP2 stable Gly-tRNA analogue, 2' isomer (structured_RNA)
RNA: GCGGGAGUAGUUCAACUUUUAGAACACGUUCCUUCCCGGAACGAGGUAUAGGUGUAAAUCCUAUCUUCCGCUCCA
modifications: 2'-(1,4-triazole-alkyne; nonadiyne) on terminal A; penultimate C is dC (pdCpA ligation)
Take B7: the affinity in series [6], expressed as Ki, was 8.6 ± 2 nM.

B8: NP2 stable Gly-tRNA analogue, 3' isomer (structured_RNA)
RNA: B7 RNA
modifications: 3'-(1,4-triazole-alkyne; nonadiyne) on terminal A; penultimate C is dC (pdCpA ligation)
Regarding B8, affinity in series [5] was put at a Ki of 110 ± 6 nM.

B9: CHIM1 analogue (NP2 with P1 acceptor stem) (structured_RNA)
RNA: B7 RNA with G3A, G5A, U55C, C69U
modifications: 2'-triazole-nonadiyne on terminal A; penultimate C is dC
Consider B9, for which the Ki in series [2] stood at 7.6 ± 0.7 nM.

B10: CHIM3 analogue (NP2 with P1 anticodon stem-loop) (structured_RNA)
RNA: GCGGGAGUAGUUCAACUUUUAGAACACAACCUUGCCAAGGUUGAGGUAUAGGUGUAAAUCCUAUCUUCCGCUCCA
modifications: 2'-triazole-nonadiyne on terminal A; penultimate C is dC
The molecule B10 returned a Ki in series [2] of 5.4 ± 0.3 nM.

B11: CHIM5 analogue (NP2 with P1 anticodon stem-loop and acceptor stem) (structured_RNA)
RNA: B10 RNA with G3A, G5A, C69U
modifications: 2'-triazole-nonadiyne on terminal A; penultimate C is dC
In series [2], B11 came in with an inhibition constant (Ki) of 19 ± 2 nM. This Ki is about 3.5-fold higher than that of the molecule before.
